As usually defined, the kcat is the maximal rate divided by the concentration of active sites. One may read the kcat/Km as the turnover number divided by the Michaelis constant.

This note sets out measurements from PMC11020753, “Contribution of amino acids in the active site of dipeptidyl peptidase 4 to the catalytic action of the enzyme” (PLOS ONE, 2024).

Substrate in the series: CC(C)C[C@H](NC(=O)[C@@H]1CCCN1C(=O)[C@@H](N)C(C)C)C(=O)O
The series can be described thus: purified protein, by the assay type. As to conditions: T = 30 °C, 100 mM Tris-HCl, pH 7.6, substrate concentration 25 μM.

The mark [1] stands for this setting: other: wild type DP4, cleavage of diprotin B as substrate.
Where [2] appears, read: other: R125A, cleavage of diprotin B as substrate.

Changes are numbered by the printed parent chain. Names and notes keep the numbering of the source.

B1: wild type DP4 (Homo sapiens) (protein)
chain: ADSRKTYTLTDYLKNTYRLKLYSLRWISDHEYLYKQENNILVFNAEYGNSSVFLENSTFDEFGHSINDYSISPDGQFILLEYNYVKQWRHSYTASYDIYDLNKRQLITEERIPNNTQWVTWSPVGHKLAYVWNNDIYVKIEPNLPSYRITWTGKEDIIYNGITDWVYEEEVFSAYSALWWSPNGTFLAYAQFNDTEVPLIEYSFYSDESLQYPKTVRVPYPKAGAVNPTVKFFVVNTDSLSSVTNATSIQITAPASMLIGDHYLCDVTWATQERISLQWLRRIQNYSVMDICDYDESSGRWNCLVARQHIEMSTTGWVGRFRPSEPHFTLDGNSFYKIISNEEGYRHICYFQIDKKDCTFITKGTWEVIGIEALTSDYLYYISNEYKGMPGGRNLYKIQLSDYTKVTCLSCELNPERCQYYSVSFSKEAKYYQLRCSGPGLPLYTLHSSVNDKGLRVLEDNSALDKMLQNVQMPSKKLDFIILNETKFWYQMILPPHFDKSKKYPLLLDVYAGPCSQKADTVFRLNWATYLASTENIIVASFDGRGSGYQGDKIMHAINRRLGTFEVEDQIEAARQFSKMGFVDNKRIAIWGWSYGGYVTSMVLGSGSGVFKCGIAVAPVSRWEYYDSVYTERYMGLPTPEDNLDHYRNSTVMSRAENFKQVEYLLIHGTADDNVHFQQSAQISKALVDVGVDFQAMWYTDEDHGIASSTAHQHIYTHMSHFIKQCFSLP
In the case of B1, under setting [1], the Km result was “(7.2 ± 0.58) · 10^−6 M”, the kcat was 7 s⁻¹ and the kcat/Km turned out to be 970000 M⁻¹ s⁻¹.

B2: DP4 variant R125A (Homo sapiens; R125A) (protein)
chain: B1 chain with R89A
As to B2, under setting [2], the Km result is reported as “(3.7 ± 0.26) · 10^−4 M”, the kcat turned out to be 7.7 s⁻¹ and the kcat/Km amounted to 21000 M⁻¹ s⁻¹.
